Reference: patent US20030077273A1

How the values were obtained:
[1] = target: human CD21 on Raji cells (CD21+ human Burkitt's lymphoma cell line) (human) (UniProt P20023); assay: cell ELISA on Raji cells, anti-mouse IgG-AP
[2] = target: human CD21 on Raji cells (CD21+ human Burkitt's lymphoma cell line) (human) (UniProt P20023); assay: flow cytometry on Raji cells, anti-mouse IgG-FITC
[3] = target: human CD21 on Raji cells (CD21+ human Burkitt's lymphoma cell line) (human) (UniProt P20023); assay: flow cytometry, control BSA-coated microspheres on Raji cells, 50 microspheres per cell
[4] = target: human CD21 on Raji cells (CD21+ human Burkitt's lymphoma cell line) (human) (UniProt P20023); assay: flow cytometry, control BSA-coated microspheres on Raji cells, 25 microspheres per cell
[5] = target: human CD21 on Raji cells (CD21+ human Burkitt's lymphoma cell line) (human) (UniProt P20023); assay: flow cytometry, control BSA-coated microspheres on Raji cells, 100 microspheres per cell
[6] = target: human CD21 on Raji cells (CD21+ human Burkitt's lymphoma cell line) (human) (UniProt P20023); assay: flow cytometry, competition: C3d beads 100:1 on Raji cells with 15 ng HB5
[7] = target: human CD21 on Raji cells (CD21+ human Burkitt's lymphoma cell line) (human) (UniProt P20023); assay: flow cytometry, competition: C3d beads 25:1 on Raji cells with 15 ng HB5
[8] = target: human CD21 on Raji cells (CD21+ human Burkitt's lymphoma cell line) (human) (UniProt P20023); assay: flow cytometry, competition: C3d beads 25:1 on Raji cells with 30 ng HB5
[9] = target: human CD21 on Raji cells (CD21+ human Burkitt's lymphoma cell line) (human) (UniProt P20023); assay: flow cytometry, competition: C3d beads 50:1 on Raji cells with 30 ng HB5
[10] = target: human CD21 on Raji cells (CD21+ human Burkitt's lymphoma cell line) (human) (UniProt P20023); assay: flow cytometry, competition: C3d beads 100:1 on Raji cells with 30 ng HB5
[11] = target: human CD21 on Raji cells (CD21+ human Burkitt's lymphoma cell line) (human) (UniProt P20023); assay: flow cytometry, competition: C3d beads 50:1 on Raji cells with 15 ng HB5
[12] = target: mouse Ig G lambda (isotype of the Ig fusion partner), coated on wells; assay: direct ELISA, MoIg-coated control wells, anti-mouse Ig kappa-AP
[13] = target: recombinant soluble human CD21 (1-2)-Ig fusion protein (human) (UniProt P20023); assay: direct ELISA, sCD21-coated wells, anti-mouse Ig kappa-AP
recombinant soluble human CD21 (1-2)-Ig fusion protein (human), sequence (P20023 21-148): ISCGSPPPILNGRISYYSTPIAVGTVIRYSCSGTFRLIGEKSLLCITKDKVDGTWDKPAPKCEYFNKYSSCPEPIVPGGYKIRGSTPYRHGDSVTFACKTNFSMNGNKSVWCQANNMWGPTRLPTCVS

human CD21 on Raji cells (CD21+ human Burkitt's lymphoma cell line) (human), sequence (P20023 21-1033): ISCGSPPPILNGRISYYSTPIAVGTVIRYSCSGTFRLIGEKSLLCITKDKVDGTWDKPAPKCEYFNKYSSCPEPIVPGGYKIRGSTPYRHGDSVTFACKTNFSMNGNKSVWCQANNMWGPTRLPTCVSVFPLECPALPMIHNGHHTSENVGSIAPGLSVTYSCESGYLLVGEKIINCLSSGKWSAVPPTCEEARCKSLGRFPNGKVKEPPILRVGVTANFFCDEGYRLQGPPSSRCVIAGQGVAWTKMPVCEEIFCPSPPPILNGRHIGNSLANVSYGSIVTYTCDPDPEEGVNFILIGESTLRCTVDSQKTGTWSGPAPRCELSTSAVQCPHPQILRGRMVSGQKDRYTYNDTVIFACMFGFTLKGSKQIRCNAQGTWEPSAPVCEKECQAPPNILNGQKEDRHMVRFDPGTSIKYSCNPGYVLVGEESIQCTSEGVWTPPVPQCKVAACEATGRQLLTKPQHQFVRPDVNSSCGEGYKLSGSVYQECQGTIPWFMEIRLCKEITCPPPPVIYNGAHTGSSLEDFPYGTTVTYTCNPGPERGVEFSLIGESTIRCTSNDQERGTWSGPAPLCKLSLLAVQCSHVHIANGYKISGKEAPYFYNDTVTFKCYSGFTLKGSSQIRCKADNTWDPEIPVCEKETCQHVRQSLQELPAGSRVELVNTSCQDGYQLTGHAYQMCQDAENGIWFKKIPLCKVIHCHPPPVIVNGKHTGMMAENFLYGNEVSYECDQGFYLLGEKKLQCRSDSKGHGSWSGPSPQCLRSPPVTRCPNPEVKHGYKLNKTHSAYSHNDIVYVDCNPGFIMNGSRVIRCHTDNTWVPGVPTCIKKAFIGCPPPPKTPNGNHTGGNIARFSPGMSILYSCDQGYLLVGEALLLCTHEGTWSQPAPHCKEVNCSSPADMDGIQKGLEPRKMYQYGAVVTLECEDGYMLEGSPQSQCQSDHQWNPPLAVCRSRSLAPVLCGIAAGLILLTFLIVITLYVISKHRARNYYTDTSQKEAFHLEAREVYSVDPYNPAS

What does the source list for “anti-human CD21 mAb BE-5 (BioSource International) (antibody)”?
OD 550 nm [1]: 0.546 OD 550 nm; Mean Fluorescent Index (MFI) [2]: 85 MFI

With Mouse IgG (control) (antibody) as the substance, how does the OD 550 nm [1] read?
Its OD 550 nm is 0.072 OD 550 nm.

For “BSA coated on 1 um fluorescent microspheres (from UniProt P02769 25-607)”, which % Cells Bound [3] is on record?
The % Cells Bound was 6.83%.

What about the % Cells Bound [4] of the same substance?
The % Cells Bound was 1.5%.

And the % Cells Bound [5]?
The % Cells Bound was 22.6%.

How did the % Cells Bound (by C3d beads in presence of mAb) [6] turn out when “mouse anti-human CD21 mAb HB5 (BD Pharmingen) (antibody)” was run?
Its % Cells Bound (by C3d beads in presence of mAb) is 69.3%.

What about the % Inhibition by mAb [6] of the same substance?
Its % Inhibition by mAb is 6.5%.

And the % Cells Bound (by C3d beads in presence of mAb) [7]?
Its % Cells Bound (by C3d beads in presence of mAb) is 19.4%.

And the % Inhibition by mAb [7]?
The % Inhibition by mAb was 11.8%.

And the % Cells Bound (by C3d beads in presence of mAb) [8]?
Its % Cells Bound (by C3d beads in presence of mAb) is 15.4%.

What about the % Inhibition by mAb [8] of the same substance?
The % Inhibition by mAb was 29.7%.

And the % Cells Bound (by C3d beads in presence of mAb) [9]?
The % Cells Bound (by C3d beads in presence of mAb) was 39.8%.

What about the % Inhibition by mAb [9] of the same substance?
Its % Inhibition by mAb is 20.5%.

What about the Mean Fluorescent Index (MFI) [2] of the same substance?
The Mean Fluorescent Index (MFI) was 117 MFI.

What about the % Cells Bound (by C3d beads in presence of mAb) [10] of the same substance?
The % Cells Bound (by C3d beads in presence of mAb) was 67.2%.

What about the % Inhibition by mAb [10] of the same substance?
The % Inhibition by mAb was 9.4%.

What about the % Cells Bound (by C3d beads in presence of mAb) [11] of the same substance?
The % Cells Bound (by C3d beads in presence of mAb) was 42.4%.

And the % Inhibition by mAb [11]?
The % Inhibition by mAb was 15.3%.

With anti-human CD21 mAb Bly-4 (antibody) as the substance, how does the OD 550 nm [1] read?
The OD 550 nm was 1.17 OD 550 nm.

“OKB7 (mouse anti-human CD21, Ortho Diagnostics) (antibody)” was tested. Which OD [12] did it give?
Its OD is 0.096 OD.

What about the Mean Fluorescent Index (MFI) [2] of the same substance?
Its Mean Fluorescent Index (MFI) is 123 MFI.

What about the OD [13] of the same substance?
The OD was 0.44 OD.
